One series concerns the target YBX1 CSD (human, UniProt P67809 48-159). Description: BLI. A general note: Biolayer interferometry detects binding as a change in optical thickness at a sensor tip.
A further series deals with YBX3 CSD (human, UniProt P16989 82-174). As to the kind of experiment: BLI.
YBX3 CSD, sequence (P16989 82-174): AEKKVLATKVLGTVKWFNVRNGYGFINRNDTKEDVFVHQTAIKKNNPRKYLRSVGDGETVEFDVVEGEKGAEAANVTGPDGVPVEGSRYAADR

YBX1 CSD, sequence (P67809 48-159): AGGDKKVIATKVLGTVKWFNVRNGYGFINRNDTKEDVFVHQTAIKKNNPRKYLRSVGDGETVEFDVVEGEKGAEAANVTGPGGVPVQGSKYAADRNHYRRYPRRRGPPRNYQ

For GGAGGCCACCUCUCCAAGGGCUUCU (structured_RNA, none) [FURIN-25nt], the Kd (in general, a measure of binding affinity in units of concentration) with YBX1 CSD is 346 nM; in the series with YBX3 CSD, 87.5 nM.
The matching figures for GGAGGCCACCUCUCCAAGGGCUUCU (structured_RNA, m5C at position 12 (NSUN6-methylated)) [FURIN-25nt-m5C]: 214 nM and 45 nM.

The record behind these values is publication PMC12227774.
